# Source: the DeepSol protein solubility set
# Test: soluble on expression in E. coli; label from the status in PepcDB or PDB records
row,Sequence,soluble on expression in E. coli
1,MAHHHHHHMSVSRFRHSTGHVAKPQRHLLNVTSSTALWDGSNTISCNDKFVAVPWQTFGGTAVFKHDTFGRLAPNPPLVLGQKGQIIDVKFDPFNDQKLFTASEDGSIFGWGIPAEGLQSNILSPLVELKGHNKKCGIISFHPSANGVLASAGVDRVIKVWDVERGTAVNTISSLSDYATGLEWNLRGSLFCVASRDKTLRVIDPRDCTVVSSVESHASARSQRCIWCKRKDTIMTLGCSKSQQRQIKLWDTRKMESPYSVTELDQSSAAFIPMYDEDLNLLILGSKGENNVKCFELMNEGLTFSYEVNSNDPMKGLCMMPKWSLDVKKCEFGRLYQLTYHSLFTIEMLLPRKQSCTEFQGDVFPSTFADHSAMSADEFFRGANADPREYDLSGMFDGHSPRLMGGSTPSPEKLPVAVQAAKPLMEAPKGETTTGREKSSVSVPESSEATSAPSDDKTEKHADPCADMTQRDILDKQRRLQELSEKVRTCHHEISALRKALHEKEAEMLQVLEDIQSI,not soluble
2,QEGTLERSDWRKFFSEFQAKGTIVVADERQADRAMLVFDPVRSKKRYSPASTFKIPHTLFALDAGAVRDEFQIFRWDGVNRGFAGHNQDQDLRSAMRNSTVWVYELFAKEIGDDKARRYLKKIDYGNADPSTSNGDYWIEGSLAISAQEQIAFLRKLYRNELPFRVEHQRLVKDLMIVEAGRNWILRAKTGWEGRMGWWVGWVEWPTGSVFFALNIDTPNRMDDLFKREAIVRAILRSIEALPPNPAVNSDAAR,soluble
3,MGHHHHHHGGHMSLETKHSNRARSRKGALRGAVLAGALMALVGCQTSPAATTSSNTGGTNMQLQLTQEWDKTFPLSAKVEHRKVTFANRYGITLAADLYLPKNRGGDRLPAIVIGGPFGAVKEQSSGLYAQTMAERGFVTLAFDPSYTGESGGQPRNVASPDINTEDFSAAVDFISLLPEVNRERIGVIGICGWGGMALNAVAVDKRVKAVVTSTMYDMTRVMSKGYNDSVTLEQRTRTLEQLGQQRWKDAESGTPAYQPPYNELKGGEAQFLVDYHDYYMTPRGYHPRAVNSGNAWTMTTPLSFMNMPILTYIKEISPRPILLIHGERAHSRYFSETAYAAAAEPKELLIVPGASHVDLYDRLDRIPFDRIAGFFDEHLEGGS,soluble
4,MTTMVNVDTLPEYEKSQIKRALELGTVMTVFNARKSTPERRTVQMIMETRQVAWSKTADKIEGFLDIMEIKEIRPGKNSKDFERAKAVRHKAECCFTILYGTQFVLSTLSLATDSKEDAVKWLSGLKILHQEAMSASTPTMIESWLRKQIYSVDQTRRNSISLRELKTILPLVNFKVSGIKFLKDKLVEIGAQKDELSFEQFHLFYKKLMFDQQKSILDEFKKDSSVFILGNTDRPDASAVYLQDFQRFLLHEQQELWAQDLNKVRERMTKFIDDTMRETAEPFLFVDEFLTYLFSRENSIWDEKYDAVDMQDMNNPLSHYWISSSHNTYLTGDQLRSESSTEAYIRCLRAGCRCIELDCWDGPDGKPIIYHGWTRTTKIKFDDVVQAIRDHAFVTSSFPVILSIEEHCSVEQQRHMAKVFKEVLGDMLLTKPTEASADQLPSPSQLREKIIIKHKKLGPKGDVDVNVEDKKDEHKPQGELYMWDSIDQKWTRHYCAIADAKLSFGDDIEQAVEEEPVQDTPPTELHFGEKWFHKKVESRTSAEKLLQEYCAETGAKDGTFLVRESETFPNDYTLSFWRSGRVQHCRIRSTMENGVMKYYLTDNLTFNSIYALIQHYREAHLRCAEFELRLTDPVPNPNPHESKPWYYDSLSRGEAEDMLMRIPRDGAFLIRKREGTNSYAITFRARGKVKHCRINRDGRHFVLGTSAYFESLVELVSYYEKHALYRKMRLRYPVTPELLERYNMERDINSLYDVSRMYVDPSEINPSMPQRTVKALYDYKAKRSDELTFCRGALIHNVSKEPGGWWKGDYGTRIQQYFPSNYVEDISAGDAEEMEKQIIEDNPLGSLCKGILDLNTYNVVKAPQGKNQKAFVFILEPKKQGDPPVEFATDRVEELFEWFQSIREITWKMDTKENNMKYWERNQSIAIELSDLVVYCKPTSKTKDHLENPDFREIRSFVETKADSIVRQKPVDLLRYNQKGLTRVYPKGQRVDSSNYDPFRLWLCGSQMVALNFQTPDKYMQMNHALFSLNGRTGYVLQPESMRSEKYDPMPLESQRKILMTLTVKVLGARHLPKLGRSIACPFVEVEICGAEYDSNKFKTTVVNDNGLSPVWAPTQEKVTFEIYDPNLAFLRFVVYEEDMFSDPNFLAHATYPIKGIKSGFRSVPLKNGYSEDIELASLLVFCEMRPVLESEEELYSSCRQLRRRQEELNNQLFLYDTHQNLRGANRDALVKEFNVNENQLQLYQEKCNRRLREKRVSNSRFYS,soluble
5,EVKLEESGGGLVQPGGSMKLSCAASGFTFSDAWMDWVRQSPEKGLEWVAEIRSKVNNHAIHYAESVKGRFTVSRDDSKSSVYLQMNSLRAEDTGIYYCSGWSFLYWGQGTLVTVSAAKTTPPSVYPLAPGSAAQTNSMVTLGCLVKGYFPEPVTVTWNSGSLSSGVHTFPAVLQSDLYTLSSSVTVPSSTWPSETVTCNVAHPASSTKVDKKIVPRD,soluble
6,DLTAIIGLEVHVQLETDTKIFCGCSTDTDDADPNTHTCPVCLGLPGALPTLNEGAVEAAVKLGKAIDADIPERTRFHRKNYFYPDLPKGFQITQYDAPICQDGELEVGTADDRRAIGIERAHLEEDPGSLQHVGGSIEDADYTLVDYNRAGTPLMEIVTRPDFRAAEEVRSFLAKLTSVLEYLGVFDAERDGSLRVDANISMVDSAELAGEGGPSDDVLEAANRTEVKNISSHRAAQKALAYETTRQRNQLER,not soluble
7,MSKGGWYLWHYLTLLKGKAYCDIYCKRITFNVKFRYVYRHFHWYSSSNNKFKQLEHHHHHH,not soluble
8,MNVVFAVKQYISKMIEDSGPGMKVLLMDKETTGIVSMVYTQSEILQKEVYLFERIDSQNREIMKHLKAICFLRPTKENVDYIIQELRRPKYTIYFIYFSNVISKSDVKSLAEADEQEVVAEVQEFYGDYIAVNPHLFSLNILGCCQGRNWDPAQLSRTTQGLTALLLSLKKCPMIRYQLSSEAAKRLAECVKQVITKEYELFEFRRTEVPPLLLILDRCDDAITPLLNQWTYQAMVHELLGINNNRIDLSRVPGISKDLREVVLSAENDEFYANNMYLNFAEIGSNIKNLMEDFQKKKPKEQQKLESIADMKAFVENYPQFKKMSGTVSKHVTVVGELSRLVSERNLLEVSEVEQELACQNDHSSALQNIKRLLQNPKVTEFDAARLVMLYALHYERHSSNSLPGLMMDLRNKGVSEKYRKLVSAVVEYGGKRVRGSDLFSPKDAVAITKQFLKGLKGVENVYTQHQPFLHETLDHLIKGRLKENLYPYLGPSTLRDRPQDIIVFVIGGATYEEALTVYNLNRTTPGVRIVLGGTTVHNTKSFLEEVLASGLHSRSKESSQVTSRSASRR,not soluble
9,MLGAIAYTGNKQSLLPELKSHFPKYNRFVDLFCGGLSVSLNVNGPVLANDIQEPIIEMYKRLINVSWDDVLKVIKQYKLSKTSKEEFLKLREDYNKTRDPLLLYVLHFHGFSNMIRINDKGNFTTPFGKRTINKNSEKRFNHFKQNCDKIIFSSLHFKDVKILDGDFVYVDPPYLITVADYNKFWSEDEEKDLLNLLDSLNDRGIKFGLSNVLEHHGKENTLLKEWSKKYNVKHLNKKYVFNIYHSKEKNGTDEVYIFN,soluble
10,MGSDKIHHHHHHMSIKSGFVALAGKPNVGKSTFINAVMGRKVVIVSDKPQTTRNRINCIYTDKDSQIIFVDTPGIHKPLHRLGEYMVKAAVQALKGVDLVLFMLDAADGFTKTDEHVAKIVNDSGTKTIIAVNKIDVAGEEKAKAVGELAKSMVENVVSVHYISALKGEGVFEVLEKIKEELPEGPQYYPEDMVTDRPLSFMAAEIIREKIFHLTRQEVPHSTAVVIEEIKDRPNGVLYIRANIYVERDSQKGILIGKNGSMIKKIGTLAREELEFLVGRKVYLDLNVKVKEKWREKDFIILQEIGLKDDIK,not soluble
11,NYYERHIGDYARDTGYLSVLEHGIYCLLLDRYYATEQPIPANKAHRIARAHSKKEKSAVDVVLDEFFLLQ,not soluble
12,MDNHKCVLVIDKALPQGLIANTAAVLTLSLGKLHPELIGADNVNKNGEIHTGITSIPIPILASSSHKIKEIRASLKEEATLVDFSNVAQTTKNYQDYSDKLAATRPEDIEYLGIAIYGTKKIINKHTGNLGLIRLEHHHHHH,soluble
